One may read the Kd as the free concentration of one partner at which half of the binding sites on the other are occupied at equilibrium, for simple one-to-one binding.

The values that follow come from US20160185836A1 (published 2016).

B1: FST(288)-IgG2 (Fc fusion)
chain: GNCWLRQAKNGRCQVLYKTELSKEECCSTGRLSTSWTEEDVNDNTLFKWMIFNGGAPNCIPCKETCENVDCGPGKKCRMNKKNKPRCVCAPDCSNITWKGPVCGLDGKTYRNECALLKARCKEQPELEVQYQGRCKKTCRDVFCPGSSTCVVDQTNNAYCVTCNRICPEPASSEQYLCGNDGVTYSSACHLRKATCLLGRSIGLAYEGKCIKAKSCEDIQCTGGKKCLWDFKVGRGRCSLCDELCPDSKSDEPVCASDNATYASECAMKEAACSSGVLLEVKHSGSCNTGGGVECPPCPAPPVAGPSVFLFPPKPKDTLMISRTPEVTCVVVDVSHEDPEVQFNWYVDGVEVHNAKTKPREEQFNSTFRVVSVLTVVHQDWLNGKEYKCKVSNKGLPAPIEKTISKTKGQPREPQVYTLPPSREEMTKNQVSLTCLVKGFYPSDIAVEWESNGQPENNYKTTPPMLDSDGSFFLYSKLTVDKSRWQQGNVFSCSVMHEALHNHYTQKSLSLSPGK
notes: Expressed with the follistatin leader in HEK-293 or CHO cells; also called mature FST(288)-IgG2
B2: FST(291)-IgG2 (Fc fusion)
chain: GNCWLRQAKNGRCQVLYKTELSKEECCSTGRLSTSWTEEDVNDNTLFKWMIFNGGAPNCIPCKETCENVDCGPGKKCRMNKKNKPRCVCAPDCSNITWKGPVCGLDGKTYRNECALLKARCKEQPELEVQYQGRCKKTCRDVFCPGSSTCVVDQTNNAYCVTCNRICPEPASSEQYLCGNDGVTYSSACHLRKATCLLGRSIGLAYEGKCIKAKSCEDIQCTGGKKCLWDFKVGRGRCSLCDELCPDSKSDEPVCASDNATYASECAMKEAACSSGVLLEVKHSGSCNSISTGGGVECPPCPAPPVAGPSVFLFPPKPKDTLMISRTPEVTCVVVDVSHEDPEVQFNWYVDGVEVHNAKTKPREEQFNSTFRVVSVLTVVHQDWLNGKEYKCKVSNKGLPAPIEKTISKTKGQPREPQVYTLPPSREEMTKNQVSLTCLVKGFYPSDIAVEWESNGQPENNYKTTPPMLDSDGSFFLYSKLTVDKSRWQQGNVFSCSVMHEALHNHYTQKSLSLSPGK
notes: Expressed with the follistatin leader in HEK-293 or CHO cells; also called mature FST(291)-IgG2
B3: FST(278)-IgG2 (Fc fusion)
chain: GNCWLRQAKNGRCQVLYKTELSKEECCSTGRLSTSWTEEDVNDNTLFKWMIFNGGAPNCIPCKETCENVDCGPGKKCRMNKKNKPRCVCAPDCSNITWKGPVCGLDGKTYRNECALLKARCKEQPELEVQYQGRCKKTCRDVFCPGSSTCVVDQTNNAYCVTCNRICPEPASSEQYLCGNDGVTYSSACHLRKATCLLGRSIGLAYEGKCIKAKSCEDIQCTGGKKCLWDFKVGRGRCSLCDELCPDSKSDEPVCASDNATYASECAMKEAACSSGVLTGGGVECPPCPAPPVAGPSVFLFPPKPKDTLMISRTPEVTCVVVDVSHEDPEVQFNWYVDGVEVHNAKTKPREEQFNSTFRVVSVLTVVHQDWLNGKEYKCKVSNKGLPAPIEKTISKTKGQPREPQVYTLPPSREEMTKNQVSLTCLVKGFYPSDIAVEWESNGQPENNYKTTPPMLDSDGSFFLYSKLTVDKSRWQQGNVFSCSVMHEALHNHYTQKSLSLSPGK
B4: FST(303)-IgG2 (Fc fusion)
chain: GNCWLRQAKNGRCQVLYKTELSKEECCSTGRLSTSWTEEDVNDNTLFKWMIFNGGAPNCIPCKETCENVDCGPGKKCRMNKKNKPRCVCAPDCSNITWKGPVCGLDGKTYRNECALLKARCKEQPELEVQYQGRCKKTCRDVFCPGSSTCVVDQTNNAYCVTCNRICPEPASSEQYLCGNDGVTYSSACHLRKATCLLGRSIGLAYEGKCIKAKSCEDIQCTGGKKCLWDFKVGRGRCSLCDELCPDSKSDEPVCASDNATYASECAMKEAACSSGVLLEVKHSGSCNSISEDTEEEEEDEDQTGGGVECPPCPAPPVAGPSVFLFPPKPKDTLMISRTPEVTCVVVDVSHEDPEVQFNWYVDGVEVHNAKTKPREEQFNSTFRVVSVLTVVHQDWLNGKEYKCKVSNKGLPAPIEKTISKTKGQPREPQVYTLPPSREEMTKNQVSLTCLVKGFYPSDIAVEWESNGQPENNYKTTPPMLDSDGSFFLYSKLTVDKSRWQQGNVFSCSVMHEALHNHYTQKSLSLSPGK
B5: FST(284)-IgG2 (Fc fusion)
chain: GNCWLRQAKNGRCQVLYKTELSKEECCSTGRLSTSWTEEDVNDNTLFKWMIFNGGAPNCIPCKETCENVDCGPGKKCRMNKKNKPRCVCAPDCSNITWKGPVCGLDGKTYRNECALLKARCKEQPELEVQYQGRCKKTCRDVFCPGSSTCVVDQTNNAYCVTCNRICPEPASSEQYLCGNDGVTYSSACHLRKATCLLGRSIGLAYEGKCIKAKSCEDIQCTGGKKCLWDFKVGRGRCSLCDELCPDSKSDEPVCASDNATYASECAMKEAACSSGVLLEVKHSTGGGVECPPCPAPPVAGPSVFLFPPKPKDTLMISRTPEVTCVVVDVSHEDPEVQFNWYVDGVEVHNAKTKPREEQFNSTFRVVSVLTVVHQDWLNGKEYKCKVSNKGLPAPIEKTISKTKGQPREPQVYTLPPSREEMTKNQVSLTCLVKGFYPSDIAVEWESNGQPENNYKTTPPMLDSDGSFFLYSKLTVDKSRWQQGNVFSCSVMHEALHNHYTQKSLSLSPGK
B6: FST(315)-IgG2 (Fc fusion)
chain: GNCWLRQAKNGRCQVLYKTELSKEECCSTGRLSTSWTEEDVNDNTLFKWMIFNGGAPNCIPCKETCENVDCGPGKKCRMNKKNKPRCVCAPDCSNITWKGPVCGLDGKTYRNECALLKARCKEQPELEVQYQGRCKKTCRDVFCPGSSTCVVDQTNNAYCVTCNRICPEPASSEQYLCGNDGVTYSSACHLRKATCLLGRSIGLAYEGKCIKAKSCEDIQCTGGKKCLWDFKVGRGRCSLCDELCPDSKSDEPVCASDNATYASECAMKEAACSSGVLLEVKHSGSCNSISEDTEEEEEDEDQDYSFPISSILEWTGGGVECPPCPAPPVAGPSVFLFPPKPKDTLMISRTPEVTCVVVDVSHEDPEVQFNWYVDGVEVHNAKTKPREEQFNSTFRVVSVLTVVHQDWLNGKEYKCKVSNKGLPAPIEKTISKTKGQPREPQVYTLPPSREEMTKNQVSLTCLVKGFYPSDIAVEWESNGQPENNYKTTPPMLDSDGSFFLYSKLTVDKSRWQQGNVFSCSVMHEALHNHYTQKSLSLSPGK
notes: Expressed with the follistatin leader in HEK-293 or CHO cells; also called mature FST(315)-IgG2

One test addresses T1, activin A (UniProt P08476 311-426).
T1 sequence (looked up): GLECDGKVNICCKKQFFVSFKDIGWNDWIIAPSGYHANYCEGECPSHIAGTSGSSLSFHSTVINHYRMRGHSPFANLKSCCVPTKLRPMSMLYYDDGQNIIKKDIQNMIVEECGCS
In words: cell-based or functional assay.
On to B1, for which the “IC50 (ng/ml), A-204 Reporter Gene Assay” value came to 30 ng/mL.
Still for that read-out and setting: with B2 the figure was 20 ng/mL; with B3, 521 ng/mL; with B4, 2 ng/mL.
Still for that read-out and setting: with B5 the figure was 369 ng/mL.
Regarding B6, the “IC50 (ng/ml), A-204 Reporter Gene Assay” value came out at 10 ng/mL.

For the next test, the target named is T2, GDF11 (UniProt O95390 299-407).
T2 sequence (looked up): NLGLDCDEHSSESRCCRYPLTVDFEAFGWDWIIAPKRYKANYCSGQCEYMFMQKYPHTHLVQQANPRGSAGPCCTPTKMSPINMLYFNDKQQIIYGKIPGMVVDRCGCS
In words: cell-based or functional assay.
Take B1: the “IC50 (ng/ml), A-204 Reporter Gene Assay” value stood at 41 ng/mL.
As for B2, the “IC50 (ng/ml), A-204 Reporter Gene Assay” value was determined as 26 ng/mL.
Same read-out and setting: with B3 the figure was 91 ng/mL; with B4, 18 ng/mL; with B5, 123 ng/mL.
For B6, the “IC50 (ng/ml), A-204 Reporter Gene Assay” value turned out to be 15 ng/mL.

For a further test, the target named is T1, activin A. In words: binding assay, method not stated.
For the molecule B1, the Kd is < 0.01 nM.
Still for that read-out and setting: with B2 the figure was < 0.01 nM.
On the same count and under the same terms, with B6 the figure was < 0.01 nM.

Another test has as its target T2, GDF11. Put plainly: binding assay, method not stated.
Regarding B1, the Kd was < 0.01 nM.
Turning to B2, the Kd is < 0.01 nM.
Same read-out and setting: with B6 the figure was < 0.01 nM.
